Results: patent US20130165539A1
No end group written: not given here. modified Toyopearl AF‑Amino‑650M resin = not defined here

What was measured:
[1] = biological target: Human polyclonal immunoglobulin G (IgG), lyophilized, Equitech-Bio, Inc. (human); test: affinity chromatography of IgG from cMEM, yield = IgG eluted / IgG loaded; cycle 100, 99 washes with 0.5 M NaOH
[2] = biological target: Human polyclonal immunoglobulin G (IgG), lyophilized, Equitech-Bio, Inc. (human); test: affinity chromatography of IgG from cMEM, yield = IgG eluted / IgG loaded; cycle 10, 9 washes with 1 M NaOH
[3] = biological target: Human polyclonal immunoglobulin G (IgG), lyophilized, Equitech-Bio, Inc. (human); test: affinity chromatography of IgG from cMEM, yield = IgG eluted / IgG loaded; cycle 1, 0 washes with 0.1 M NaOH
[4] = biological target: Human polyclonal immunoglobulin G (IgG), lyophilized, Equitech-Bio, Inc. (human); test: affinity chromatography of IgG from cMEM, yield = IgG eluted / IgG loaded; cycle 1, 0 washes with 1 M NaOH
[5] = biological target: Human polyclonal immunoglobulin G (IgG), lyophilized, Equitech-Bio, Inc. (human); test: affinity chromatography of IgG from cMEM, yield = IgG eluted / IgG loaded; cycle 75, 74 washes with 0.5 M NaOH
[6] = biological target: Human polyclonal immunoglobulin G (IgG), lyophilized, Equitech-Bio, Inc. (human); test: affinity chromatography of IgG from cMEM, yield = IgG eluted / IgG loaded; cycle 100, 99 washes with 0.1 M NaOH
[7] = biological target: Human polyclonal immunoglobulin G (IgG), lyophilized, Equitech-Bio, Inc. (human); test: affinity chromatography of IgG from cMEM, yield = IgG eluted / IgG loaded; cycle 1, 0 washes with 0.5 M NaOH
[8] = biological target: Human polyclonal immunoglobulin G (IgG), lyophilized, Equitech-Bio, Inc. (human); test: affinity chromatography of IgG from cMEM, yield = IgG eluted / IgG loaded; cycle 50, 49 washes with 1 M NaOH
[9] = biological target: Human polyclonal immunoglobulin G (IgG), lyophilized, Equitech-Bio, Inc. (human); test: affinity chromatography of IgG from cMEM, yield = IgG eluted / IgG loaded; cycle 200, 199 washes with 0.1 M NaOH
[10] = biological target: Human polyclonal immunoglobulin G (IgG), lyophilized, Equitech-Bio, Inc. (human); test: affinity chromatography of IgG from cMEM, yield = IgG eluted / IgG loaded; cycle 50, 49 washes with 0.1 M NaOH
[11] = biological target: Human polyclonal immunoglobulin G (IgG), lyophilized, Equitech-Bio, Inc. (human); test: affinity chromatography of IgG from cMEM, yield = IgG eluted / IgG loaded; cycle 30, 29 washes with 1 M NaOH
[12] = biological target: Human polyclonal immunoglobulin G (IgG), lyophilized, Equitech-Bio, Inc. (human); test: affinity chromatography of IgG from cMEM, yield = IgG eluted / IgG loaded; cycle 25, 24 washes with 0.5 M NaOH
[13] = biological target: Human polyclonal immunoglobulin G (IgG), lyophilized, Equitech-Bio, Inc. (human); test: affinity chromatography of IgG from cMEM, yield = IgG eluted / IgG loaded; cycle 25, 24 washes with 0.1 M NaOH
[14] = biological target: Human polyclonal immunoglobulin G (IgG), lyophilized, Equitech-Bio, Inc. (human); test: affinity chromatography of IgG from cMEM, yield = IgG eluted / IgG loaded; cycle 50, 49 washes with 0.5 M NaOH
[15] = biological target: Human polyclonal immunoglobulin G (IgG), lyophilized, Equitech-Bio, Inc. (human); test: affinity chromatography of IgG from cMEM, yield = IgG eluted / IgG loaded; cycle 20, 19 washes with 1 M NaOH
[16] = biological target: Human polyclonal immunoglobulin G (IgG), lyophilized, Equitech-Bio, Inc. (human); test: affinity chromatography, IgG 10 mg/mL in cMEM loaded on 0.1 mL column, eluted with 0.2 M acetate pH 4; yield = IgG eluted / IgG loaded (Protein G HPLC); cycle 1, before any NaOH wash
[17] = biological target: Human polyclonal immunoglobulin G (IgG), lyophilized, Equitech-Bio, Inc. (human); test: affinity chromatography, yield = IgG eluted / IgG loaded; cycle 4, after two 0.1 M NaOH washes
[18] = biological target: Human polyclonal immunoglobulin G (IgG), lyophilized, Equitech-Bio, Inc. (human); test: affinity chromatography, yield = IgG eluted / IgG loaded; cycle 2, after phosphoric acid regeneration, before any NaOH wash
[19] = biological target: Human polyclonal immunoglobulin G (IgG), lyophilized, Equitech-Bio, Inc. (human); test: affinity chromatography, yield = IgG eluted / IgG loaded; cycle 3, after the first 0.1 M NaOH wash (ligand partly leached)
[20] = biological target: Human polyclonal immunoglobulin G (IgG), lyophilized, Equitech-Bio, Inc. (human); test: affinity chromatography, yield = IgG eluted / IgG loaded; cycle 5, after three 0.1 M NaOH washes

IgG yield [1] [%] | IgG yield [2] [%] | IgG yield [3] [%] | IgG yield [4] [%] | IgG yield [5] [%] | IgG yield [6] [%] | IgG yield [7] [%] | IgG yield [8] [%] | IgG yield [9] [%] | IgG yield [10] [%] | IgG yield [11] [%] | IgG yield [12] [%] | IgG yield [13] [%] | IgG yield [14] [%] | IgG yield [15] [%] | IgG yield [16] [%] | IgG yield [17] [%] | IgG yield [18] [%] | IgG yield [19] [%] | IgG yield [20] [%] | Binder
80 | 84 | 91 | 88 | 82 | 87 | 89 | 76 | 85 | 88 | 79 | 87 | 90 | 85 | 82 | – | – | – | – | – | HWRGWVA-{modified Toyopearl AF‑Amino‑650M resin} (reading uncertain) [HWRGWV (SEQ ID NO: 1) synthesized on modified Toyopearl AF-Amino-650M resin (density 0.11 meq/g)]
– | – | – | – | – | – | – | – | – | – | – | – | – | – | – | 85 | 21 | 85 | 23 | 21 | HWRGWV-{Toyopearl AF‑Amino‑650M resin} (also: coupled partly by amide, partly by ester bonds)
